Reference: patent US20040235710A1, “Pre-mixes of glp-1 and basal insulin” (published 2004)
Numbering of substitutions follows the chain as printed. No end group written: not given here.

B1: Val^8-Glu^22-GLP-1(7-36)NH2 (peptide)
peptide: HVEGTFTSDVSSYLEEQAAKEFIAWLVKGR-NH2
B2: Val^8-Lys^20-GLP-1(7-37)OH (peptide)
peptide: HVEGTFTSDVSSYKEGQAAKEFIAWLVKGRG
B3: Val^8-Lys^24-GLP-1(7-37)OH (peptide)
peptide: B2 peptide with K14L, A18K
B4: Val^8-Asp^30-GLP-1(7-37)OH (peptide)
peptide: B2 peptide with K14L, A24D
B5: Val^8-Leu^16-Glu^26-GLP-1(7-37)OH (peptide)
peptide: B2 peptide with V10L, K14L, K20E
B6: Val^8-Glu^35-GLP-1(7-37)OH (peptide)
peptide: B2 peptide with K14L, G29E
B7: Val^8-His^24-GLP-1(7-37)OH (peptide)
peptide: B2 peptide with K14L, A18H
B8: Val^8-Glu^33-GLP-1(7-37)OH (peptide)
peptide: B2 peptide with K14L, V27E
B9: Val^8-Glu^34-GLP-1(7-37)OH (peptide)
peptide: B2 peptide with K14L, K28E
B10: Val^8-His^36-GLP-1(7-37)OH (peptide)
peptide: B2 peptide with K14L, R30H
B11: Val^8-His^37-GLP-1(7-37)OH (peptide)
peptide: B2 peptide with K14L, G31H
B12: Val^8-Trp^12-GLP-1(7-37)OH (peptide)
peptide: B2 peptide with F6W, K14L
B13: Val^8-His^26-GLP-1(7-37)OH (peptide)
peptide: B2 peptide with K14L, K20H
B14: Val^8-Lys^33-Val^34-GLP-1(7-37)OH (peptide)
peptide: B2 peptide with K14L, V27K, K28V
B15: Gln^22-GLP-1(7-37)OH (peptide)
peptide: B2 peptide with V2A, K14L, G16Q
B16: Val^8-Glu^30-GLP-1(7-37)OH (peptide)
peptide: B2 peptide with K14L, A24E
B17: Val^8-Glu^36-GLP-1(7-37)OH (peptide)
peptide: B2 peptide with K14L, R30E
B18: Val^8-Lys^33-Asn^34-GLP-1(7-37)OH (peptide)
peptide: B2 peptide with K14L, V27K, K28N
B19: Val^8-Ala^33-GLP-1(7-37)OH (peptide)
peptide: B2 peptide with K14L, V27A
B20: Val^8-Ala^11-GLP-1(7-37)OH (peptide)
peptide: B2 peptide with T5A, K14L
B21: Val^8-Lys^11-GLP-1(7-37)OH (peptide)
peptide: B2 peptide with T5K, K14L
B22: Val^8-Tyr^12-Tyr^16-GLP-1(7-37)OH (peptide)
peptide: B2 peptide with F6Y, V10Y, K14L
B23: Val^8-His^35-GLP-1(7-37)OH (peptide)
peptide: B2 peptide with K14L, G29H
B24: Val^8-Gly^33-GLP-1(7-37)OH (peptide)
peptide: B2 peptide with K14L, V27G
B25: Val^8-Ser^30-GLP-1(7-37)OH (peptide)
peptide: B2 peptide with K14L, A24S
B26: Val^8-Lys^23-GLP-1(7-37)OH (peptide)
peptide: B2 peptide with K14L, Q17K
B27: Val^8-His^30-GLP-1(7-37)OH (peptide)
peptide: B2 peptide with K14L, A24H
B28: Val^8-His^27-GLP-1(7-37)OH (peptide)
peptide: B2 peptide with K14L, E21H
B29: Val^8-Lys^22-Glu^30-GLP-1(7-37)OH (peptide)
peptide: B2 peptide with K14L, G16K, A24E
B30: Val^8-Lys^22-Glu^23-GLP-1(7-37)OH (peptide)
peptide: B2 peptide with K14L, G16K, Q17E
B31: Gly^8-GLP-1(7-37)OH (peptide)
peptide: B2 peptide with V2G, K14L
B32: Gly^8-His^11-GLP-1(7-37)OH (peptide)
peptide: B2 peptide with V2G, T5H, K14L
B33: Val^8-Glu^26-GLP-1(7-37)OH (peptide)
peptide: B2 peptide with K14L, K20E
B34: Val^8-Gly^34-Lys^35-GLP-1(7-37)OH (peptide)
peptide: B2 peptide with K14L, K28G, G29K
B35: Gly^8-Glu^30-GLP-1(7-37)OH (peptide)
peptide: B2 peptide with V2G, K14L, A24E
B36: Val^8-Tyr^16-Phe^19-GLP-1(7-37)OH (peptide)
peptide: B2 peptide with V10Y, Y13F, K14L
B37: Val^8-Pro^35-GLP-1(7-37)OH (peptide)
peptide: B2 peptide with K14L, G29P
B38: Val^8-Trp^16-Glu^22-Val^25-GLP-1(7-37)OH (peptide)
peptide: HVEGTFTSDWSSYLEEQAVKEFIAWLVKGRG
B39: Val^8-Trp^12-Glu^22-GLP-1(7-37)OH (peptide)
peptide: B2 peptide with F6W, K14L, G16E
B40: Val^8-Ser^22-GLP-1(7-37)OH (peptide)
peptide: B2 peptide with K14L, G16S
B41: Val^8-Lys^22-GLP-1(7-37)OH (peptide)
peptide: B2 peptide with K14L, G16K
B42: Val^8-Pro^22-GLP-1(7-37)OH (peptide)
peptide: B2 peptide with K14L, G16P
B43: Val^8-Glu^22-GLP-1(7-37)OH (peptide)
peptide: B2 peptide with K14L, G16E
B44: Val^8-Ala^16-GLP-1(7-37)OH (peptide)
peptide: B2 peptide with V10A, K14L
B45: Val^8-Glu^22-Lys^23-GLP-1(7-37)OH (peptide)
peptide: B2 peptide with K14L, G16E, Q17K
B46: Val^8-Leu^25-GLP-1(7-37)OH (peptide)
peptide: B2 peptide with K14L, A19L
B47: Val^8-Glu^16-GLP-1(7-37)OH (peptide)
peptide: B2 peptide with V10E, K14L
B48: Val^8-Tyr^12-Glu^22-GLP-1(7-37)OH (peptide)
peptide: B2 peptide with F6Y, K14L, G16E
B49: Val^8-Asp^22-GLP-1(7-37)OH (peptide)
peptide: B2 peptide with K14L, G16D
B50: Val^8-Leu^16-Glu^22-GLP-1(7-37)OH (peptide)
peptide: B38 peptide with W10L, V19A
B51: Val^8-His^22-GLP-1(7-37)OH (peptide)
peptide: B2 peptide with K14L, G16H
B52: Val^8-Ala^22-GLP-1(7-37)OH (peptide)
peptide: B2 peptide with K14L, G16A
B53: Val^8-Leu^16-GLP-1(7-37)OH (peptide)
peptide: B2 peptide with V10L, K14L
B54: Val^8-Gly^36-Pro^37-GLP-1(7-37)NH2 (peptide)
peptide: HVEGTFTSDVSSYLEGQAAKEFIAWLVKGGP-NH2
B55: Val^8-Lys^22-GLP-1(7-36)NH2 (peptide)
peptide: HVEGTFTSDVSSYLEKQAAKEFIAWLVKGR-NH2
B56: Val^8-Tyr^12-GLP-1(7-36)NH2 (peptide)
peptide: HVEGTYTSDVSSYLEGQAAKEFIAWLVKGR-NH2

What was measured:
human GLP-1 receptor [1] = target: T1, human GLP-1 receptor (human, UniProt P43220); assay: cell-based or functional assay
human GLP-1 receptor [2] = target: T1, human GLP-1 receptor; assay: cell-based or functional assay; remark: listed apart in the source

Binder	GLP-1 Receptor Activation (relative to GLP-1(7-37)OH) (human GLP-1 receptor [1]) [relative potency]	GLP-1 receptor activation relative to Val^8-GLP-1(7-37)OH (human GLP-1 receptor [2]) [relative potency]
B1	1	–
B2	0.33	–
B3	0.02	–
B4	0.15	–
B5	0.23	–
B6	0.15	–
B7	0.007	–
B8	0.039	–
B9	0.17	–
B10	0.22	–
B11	0.33	–
B12	–	1.1
B13	1.6	–
B14	0.08	–
B15	0.42	–
B16	0.29	–
B17	0.11	–
B18	0.09	–
B19	0.1	–

Binder	GLP-1 Receptor Activation (relative to GLP-1(7-37)OH) (human GLP-1 receptor [1]) [relative potency]	GLP-1 receptor activation relative to Val^8-GLP-1(7-37)OH (human GLP-1 receptor [2]) [relative potency]
B20	0.021	–
B21	0.001	–
B22	–	1.5
B23	0.41	–
B24	0.01	–
B25	0.19	–
B26	0.18	–
B27	0.19	–
B28	0.37	–
B29	0.37	–
B30	0.35	–
B31	–	1.7
B32	0.282	–
B33	1.5	–
B34	0.34	–
B35	0.29	–
B36	–	2.8
B37	0.094	–
B38	–	4.4

Binder	GLP-1 Receptor Activation (relative to GLP-1(7-37)OH) (human GLP-1 receptor [1]) [relative potency]	GLP-1 receptor activation relative to Val^8-GLP-1(7-37)OH (human GLP-1 receptor [2]) [relative potency]
B39	–	1.7
B40	0.5	–
B41	0.58	–
B42	0.01	–
B43	1.29	–
B44	0.112	–
B45	1.43	–
B46	–	0.5
B47	0.047	–
B48	–	2.7
B49	0.4	–
B50	–	4.3
B51	0.14	–
B52	0.56	–
B53	–	1.1
B54	0.53	–
B55	0.53	–
B56	–	1.1
